What was measured:
CLDN8 = target: T1, CLDN8 (human, UniProt P56748 1-225); test: FACS on SW480 cells transiently transfected with human CLDN8
T1 construct: whole, on cells; also called human CLDN8
T1 sequence (looked up): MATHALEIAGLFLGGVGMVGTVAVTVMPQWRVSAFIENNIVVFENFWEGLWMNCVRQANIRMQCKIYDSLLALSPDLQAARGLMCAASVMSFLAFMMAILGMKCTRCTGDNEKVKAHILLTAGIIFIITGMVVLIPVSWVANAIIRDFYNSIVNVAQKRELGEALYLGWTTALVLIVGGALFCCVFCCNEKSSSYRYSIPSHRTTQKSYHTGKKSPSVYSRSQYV
Description: (§1) A). Cell lysates derived from SW480 or CLDN-transfected SW480 were tested by Western-Blotting. B) FACS histograms of the binding 6F6C3 mAb (10 μg/mL-gray histogram) or control without 6F6C3 (dashed histogram) or irrelevant antibody 35A7 (black histogram) to the different CLDNs.
(§2) After transitory tranfection on SW480 cells of human cDNA clone of CLDN8 (sc320974, Origene technologies, USA) and murine cDNA clone of CLDN1 (IRAVp968A105D, LifeScience), we analysed by FACs cross-reactivity of 6F6C3 mAb.

murine CLDN1 = target: T2, murine CLDN1 (murine, UniProt O88551 1-211); test: FACS on SW480 cells transiently transfected with murine CLDN1
T2 construct: whole, on cells; also called mCLDN1
T2 sequence (looked up): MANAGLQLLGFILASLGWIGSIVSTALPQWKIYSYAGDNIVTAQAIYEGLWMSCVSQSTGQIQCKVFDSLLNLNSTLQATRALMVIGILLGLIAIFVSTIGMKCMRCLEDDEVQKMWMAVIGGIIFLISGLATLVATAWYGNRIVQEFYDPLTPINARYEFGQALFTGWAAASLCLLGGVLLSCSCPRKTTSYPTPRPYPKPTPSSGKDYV
Description: as §1, §2

CLDN7 = target: T3, CLDN7 (UniProt O95471 1-211, limits assumed); test: FACS on parental SW480 cells, which express CLDN7
T3 construct: whole, on cells; It is endogenous in the human SW480 cell line
T3 sequence (looked up): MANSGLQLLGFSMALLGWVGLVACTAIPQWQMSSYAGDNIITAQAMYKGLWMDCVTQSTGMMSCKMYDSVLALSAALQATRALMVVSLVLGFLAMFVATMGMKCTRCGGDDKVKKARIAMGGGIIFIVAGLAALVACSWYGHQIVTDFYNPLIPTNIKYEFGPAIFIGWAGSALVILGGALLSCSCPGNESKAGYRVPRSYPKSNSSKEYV
Description: as §1, §2

Measured: binding result

B1: 6F6C3 mAb (antibody, V domains shown)
VH: QIQLVQSGPELKKPGETVRISCKASGYTFTTSGMQWLQKMPGKGLKWIGWINTHFGEPKYAEDFKGRFAFSLETSASTAYLQISNLKNEDTATYFCAGAGYYGSRYFDVWGAGTTVTVSS
VL: DIVMTQSQKFMSTSVGDRVSITCKASQNVGTAVAWYQQKPGQSPKLLIYSASNRYTGVPDRFTGSGSGTDFTLTISNMQSEDLADYFCQQYSSYPLTFGGGTKLEIK
notes: Murine hybridoma antibody; Used as purified mAb or as hybridoma supernatant; also called mAb6F6C3; murine anti-CLDN1 antibody (6F6C3)
no binding (tested: 10 µg/mL): CLDN8 | murine CLDN1 | CLDN7
